In paper PMC3287177:

Columns and labels:
Test in all cases: EMSA
[1] = biological target: T1, Lin28 119-180 (NCp7-like domain) (Mus musculus, UniProt Q8K3Y3 119-180)
T1 sequence: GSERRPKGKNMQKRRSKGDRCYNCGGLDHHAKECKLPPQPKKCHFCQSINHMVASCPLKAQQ

[2] = biological target: T2, Lin28 39-112 (CSD) (Mus musculus, UniProt Q8K3Y3 39-112)
T2 sequence: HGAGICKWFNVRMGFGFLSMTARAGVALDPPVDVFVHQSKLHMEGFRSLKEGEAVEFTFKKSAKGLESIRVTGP

[3] = biological target: T3, Lin28 1-209 (Mus musculus, UniProt Q8K3Y3 1-209)
T3 sequence: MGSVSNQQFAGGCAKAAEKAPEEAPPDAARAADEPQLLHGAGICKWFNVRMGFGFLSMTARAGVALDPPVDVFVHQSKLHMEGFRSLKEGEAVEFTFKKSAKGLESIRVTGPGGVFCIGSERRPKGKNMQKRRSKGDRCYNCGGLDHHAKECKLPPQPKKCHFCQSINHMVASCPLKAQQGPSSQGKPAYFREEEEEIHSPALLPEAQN

B1: pre-let-7g (structured_RNA)
RNA: UGAGGUAGUAGUUUGUACAGUUUGAGGGUCUAUGAUACCACCCGGUACAGGAGAUAACUGUACAGGCCACUGCCUUGCC
Kd [1]: 0.6 ± 0.1 nM | Kd [2]: 41 ± 10 nM | Kd [3]: 0.15 ± 0.04 nM
